Assay results: article PMC8936114

Biological target: NSP12 (RNA-dependent RNA polymerase) (SARS-CoV-2, UniProt P0DTD1 4393-5324)
Assay: filter binding; 20 mM Tris, 200 mM KCl, room temperature, 1 h; pH not stated; […]
Settings: protein: commercial; tags: His; label: 3' biotin; stem loops

B1: Scov2_7431_7555_RNA (structured_RNA)
RNA: GGGCGAAAACGCCCCAUUUUAUUAUGUAUGGAAAAGUUAUGUGCAUGUUGUAGACGGUUGUAAUUCAUCAACUUGUAUGAUGUGUUACAAACGUAAUAGAGCAACAAGAGUCGAAUGUACAACUAUUGUUAAUGGUGUU
modifications: 3' biotinylation (Pierce RNA 3' End Biotinylation Kit)
- Kd: 17 nM
